Measurements as given in publication PMC6723090.

Biological target: synthetic CDR1 peptide … with N-terminal Biotin-[TTDS] linker (human)
Assay: affinity purification with mass spectrometry; spike-in: 2 ug recombinant HTRA2 added to 5 mg homogenized pig retina; beads with CDR peptide, scrambled peptide or biotin only (n = 3); eluates on 1-D SDS-PAGE, gel region above 49 kDa digested with trypsin, LC-MS/MS intensity of HTRA2

LC-MS intensity of recovered HTRA2: 4.2e+08
Substance: recombinant HTRA2/Omi (Human Serine Protease, cat. no. C760) (from UniProt O43464 32-458) (enzyme)
